B1: Pistol ribozyme (parent)
chain: GGGUCGUUGUUCCAUAAUCGCGUGGAUAUGGCACGCAAGUUUCUACCGGGCACCGUAAAUGUCCGACUGGAGCCGUUCGGGCGGCUAUAAACAGACCUCAGGCCCGAAGCGUGGCGGCACCUGCCGCCGGUGGUAAAAAAGAUCGGAAGAGCACACGUCU

Variants of: B1
Assay: aptazyme ON/OFF ratio, guanine; higher = stronger switching; co-transcriptional cleavage with and without guanine

Point of comparison: U7A U8G G9U U10C U11C C12U C13U, “aptazyme ON/OFF ratio” value 1.23. Against it:
- U7A U8G G9U U10G C12G C13A — higher, 1.37
- U7A U8G G9U U10G C12G C13U — higher, 1.3
- U7A U8G G9U U10G C12G C13G — lower, 1.11
- U7A U8G G9U U10C U11C C12G C13A — lower, 1.2
- U7A U8G G9U U10C U11C C12G C13U — higher, 1.46
- U7A U8G G9U U10C U11C C12G C13G — lower, 1.11
- U7A U8G G9U U10C U11C C12U C13A — lower, 1.14
- U7A U8G G9U U10C U11C C12U C13G — lower, 1.2
- U7A U8G G9U U10C U11G C12A C13A — lower, 1.16
- U7A U8G G9U U10C U11G C12A C13U — higher, 1.45
- U7A U8G G9U U10C U11G C12A C13G — higher, 1.41
- U7A U8G G9U U10G U11G C12A C13G — lower, 1.13
- U7A U8G G9U U10G U11G C12A C13U — lower, 1.21
- U7A U8G G9U U10G U11G C12A C13A — lower, 1.12
- U7A U8G G9C U11G C13A — higher, 1.43
- U7A U8G G9C U11G C13G — lower, 1.22
- U7A U8G G9C U11G C13U — higher, 1.4
- U7A U8G G9U U11G C13G — higher, 1.4
- U7A U8G G9U U11G C13A — higher, 1.28
- U7A U8G G9U U11G C13U — higher, 1.45
- U7A U8G G9U U10G U11G C13G — lower, 1.19
- U7A U8G G9U U10G U11G C13A — lower, 1.16
- U7A U8G G9U U10G U11G C13U — higher, 1.24
- U7A U8G G9U — higher, 3.18
- U7A U8G G9U U10A C12G — higher, 1.45
- U7A U8G G9U U10A C12U — higher, 1.4
- U7A U8G G9U U10A C12A — higher, 1.45
- U7A U8G U10C C12A C13A — higher, 1.41
- U7A U8G U10C C12A C13G — higher, 1.25
- U7A U8G U10C C12A C13U — higher, 1.51
- U7A U8G G9U U10G U11G C12G C13A — lower, 1.16
- U7A U8G G9U U10G U11G C12G C13G — higher, 1.24
- U7A U8G G9U U10G U11G C12G C13U — lower, 0.953
- U7A U8G G9U U11C C13U — higher, 1.38
- U7A U8G G9U U11C C13G — lower, 1.06
- U7A U8G G9U U11C C13A — higher, 1.26
- U7A U8G U10A U11A C12G — lower, 1.13
- U7A U8G U10A U11A C12A — higher, 1.47
- U7A U8G U10A U11A C12U — higher, 1.38
- U7A U8G U10A C13A — lower, 1.09
- U7A U8G U10A C13G — higher, 1.26
- U7A U8G U10A C13U — lower, 1.12
- U7A U8G U10C C12A — higher, 1.33
- U7A U8G U10C C12G — lower, 1.12
- U7A U8G G9U C12G C13G — higher, 1.4
- U7A U8G G9U C12G C13A — lower, 1.22
- U7A U8G G9U C12G C13U — higher, 1.33
- U7A U8G G9U U11C C12A C13G — lower, 1.12
- U7A U8G G9U U11C C12A C13A — higher, 1.68
- U7A U8G G9U U11C C12A C13U — lower, 1.11
- U7A U8G G9U U10G C12A C13G — lower, 1.14
- U7A U8G G9U U10G C12A C13U — lower, 1.15
- U7A U8G G9U U10G C12A C13A — higher, 1.27
- U7A U8G G9U U10A U11A C13U — higher, 1.39
- U7A U8G G9U U10A U11A C13A — higher, 1.48
- U7A U8G G9U U10A U11A C13G — lower, 1.15
- U7A U8G G9U U10G U11A C12U C13U — higher, 1.42
- U7A U8G G9U U10G U11A C12U C13A — higher, 1.64
- U7A U8G G9U U10G U11A C12U C13G — lower, 1.18
- U7A U8G U10A U11C C12U C13G — higher, 1.41
- U7A U8G U10A U11C C12U C13U — higher, 1.33
- U7A U8G U10A U11C C12U C13A — lower, 1.14
- U7A U8G U10A C12A C13U — higher, 1.48
- U7A U8G U10A C12A C13A — lower, 1.17
- U7A U8G U10A C12A C13G — the same, 1.23
- U7A U8G G9U U11A C12A — higher, 1.59
- U7A U8G G9U U11A C12G — higher, 1.38
- U7A U8G G9U U11A C12U — higher, 1.38
- U7A U8G G9U U10C U11A C12U C13A — higher, 1.41
- U7A U8G G9U U10C U11A C12U C13U — higher, 1.36
- U7A U8G G9U U10C U11A C12U C13G — higher, 1.32
- U7A U8G G9U C12A C13U — lower, 1.2
- U7A U8G G9U C12A C13G — higher, 1.44
- U7A U8G G9U C12A C13A — higher, 1.28
- U7A U8G U10A C12G C13A — higher, 1.24
- U7A U8G U10A C12G C13U — lower, 1.21
- U7A U8G U10A C12G C13G — higher, 1.26
- U7A U8G G9C U11G C12U — higher, 1.43
- U7A U8G G9U U10C U11A C12G C13G — higher, 1.28
- U7A U8G G9U U10C U11A C12G C13U — higher, 1.37
- U7A U8G G9U U10C U11A C12G C13A — higher, 1.27
- U7A U8G G9U U10A — lower, 1.18

— the RNAGym collection of RNA variant scans (doi:10.1021/acssynbio.7b00057)
